Data: article PMC5662892

Tested on: ORC-Qdot705 (Orc1-6) (budding yeast)
Experiment: single-molecule TIRFM
Conditions: RPA: 20 mM Tris pH 7.5, 50 mM NaCl, 2 mM EDTA, 0.2 mg/ml BSA, ORC: 25 mM HEPES pH 7.6, 12 mM MgOAc, 50 uM ZnOAc, 1 mM DTT, 225 mM KGlut, 3 mM ATP

Substance: lambda-ARS1
- binding signal (% of binding positions at ARS1 site): 12.8
